Residue numbers refer to the chain shown, from its start.

In assay [1] the target is T1, Mouse IgG1 Fc fused SARS-CoV-2 RBD (Sino Biological) (SARS-CoV-2; mouse, UniProt P0DTC2 330-518).
Assay [2] addresses SARS-CoV-2 spike, full length, on cells or on pseudotyped/authentic virus (SARS-CoV-2, UniProt P0DTC2 14-1273). Nature of the assay: cell-based or functional assay.
In assay [3] the target is T1, Mouse IgG1 Fc fused SARS-CoV-2 RBD …. Put plainly: BLI, RBD-mFc on AMC tips, global 1:1 fit. (In general: In BLI a coated tip is dipped into the sample, and binding shifts an interference pattern.)
Assay [4] addresses T2, SARS-CoV RBD (SARS-CoV-1, UniProt P59594 320-502).
Assay [5] deals with T3, 2019-nCoV RBD (purified recombinant) (SARS-CoV-2, UniProt P0DTC2 330-518).
Assay [6] concerns the target SARS-CoV-2 RBD protein Avi-tag biotinylated (AcroBiosystems SPD-C82E9) (SARS-CoV-2, UniProt P0DTC2 330-518). Put plainly: competition AlphaLISA; competitor human ACE2-mFc. (Bead proximity is the source of the signal in Alpha formats.)
In assay [7] the target is T4, SARS-CoV NTD (N-terminal domain) (SARS-CoV-1, UniProt P59594 14-276).
T4 sequence: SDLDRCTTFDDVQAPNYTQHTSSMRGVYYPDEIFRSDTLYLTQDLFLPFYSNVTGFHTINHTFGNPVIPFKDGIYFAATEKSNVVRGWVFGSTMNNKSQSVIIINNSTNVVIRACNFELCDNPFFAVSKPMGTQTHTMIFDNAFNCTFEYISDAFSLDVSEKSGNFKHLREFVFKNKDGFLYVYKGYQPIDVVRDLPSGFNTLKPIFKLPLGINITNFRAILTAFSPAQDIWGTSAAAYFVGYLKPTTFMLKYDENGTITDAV
Put plainly: ELISA, coated antigen. Background: In an ELISA, binding on a coated surface is turned into a signal by an enzyme label.

The target in assay [8] is SARS-CoV-1 spike, full length, on cells or on pseudotyped virus (SARS-CoV-1, UniProt P59594 14-1255). Nature of the assay: cell-based or functional assay.
In assay [9] the target is T2, SARS-CoV RBD. Nature of the assay: SPR, His-tagged VHH on NTA chip, RBD as analyte.
Assay [10] has as its target T3, 2019-nCoV RBD (purified recombinant). Put plainly: SPR, His-tagged VHH on NTA chip, RBD as analyte.

B1: D72-16: h1-VHH72-GS-hIgG1hinge-hIgG1Fc (Fc fusion)
chain: EVQLVESGGGLVQPGGSLRLSCAASGRTFSEYAMGWFRQAPGKEREFVATISWSGGSTYYTDSVKGRFTISRDNAKNTVYLQMNSLRPEDTAVYYCAAAGLGTVVSEWDYDYDYWGQGTLVTVSSGS
notes: ExpiCHO
As for B1, it took 0.00965 µg/mL to reach a half-maximal effect in assay [1] (EC50). In [2], the “IC50, plaque reduction neutralization, authentic SARS-CoV-2” value turned out to be 0.94 µg/mL. In addition, in assay [3], the affinity, expressed as Kd, was 0.102 nM; the koff was 0.000191 s⁻¹; the kon was found to be 1.89e+06 M⁻¹ s⁻¹.

B2: D72-02: VHH72-GS-hIgG1hinge-hIgG1Fc (Fc fusion)
chain: B1 chain with E1Q, V5Q, P14A, R87K, E89D, L120Q
As for B2, the midpoint of the response in [1], the EC50, lay at 0.00695 µg/mL. Besides, the “IC50, plaque reduction neutralization, authentic SARS-CoV-2” value in assay [2] came out at 1.01 µg/mL. In assay [3], this molecule gave a Kd of 0.142 nM, a koff of 0.00026 s⁻¹ and a kon of 1.83e+06 M⁻¹ s⁻¹.

B3: SARS VHH-72 (VHH)
VHH: QVQLQESGGGLVQAGGSLRLSCAASGRTFSEYAMGWFRQAPGKEREFVATISWSGGSTYYTDSVKGRFTISRDNAKNTVYLQMNSLKPDDTAVYYCAAAGLGTVVSEWDYDYDYWGQGTQVTVSS
Regarding B3, in the assay with SARS-CoV RBD [4], the koff amounted to 0.0033 s⁻¹ and the kon was determined as 2.86e+06 M⁻¹ s⁻¹. In assay [5], the koff came out at 3.13 s⁻¹ and the kon is 8.09e+07 M⁻¹ s⁻¹. In addition, in [6], the “% inhibition” value amounted to 97% and the IC50 amounted to 26.7 nM. Besides, the binding result in [7] is listed as “no binding”. Moreover, the “IC50, pseudotyped lentivirus neutralization, Huh7.5 cells, luciferase” value in [8] amounted to 0.14 µg/mL. Further, binding in the assay with SARS-CoV RBD [9] was put at a Kd of 1.15 nM. Besides, the Kd in [10] came to 38.7 nM.

Usually EC50 stands for the concentration at which the effect is half-maximal. Read a high EC50 as lower potency in that assay. For orientation: Kd means the free concentration of one partner at which half of the binding sites on the other are occupied at equilibrium, for simple one-to-one binding. Usually koff stands for the first-order rate constant of dissociation. In general, kon refers to a measure of how fast the partners come together. What is called % inhibition is the share of the control response that was lost under treatment. The IC50 is the point on the concentration scale where inhibition reaches its midpoint. A higher IC50 goes with weaker potency.

The values above are taken from patent publication US20230227537A1 (VIB VZW, published 2023).
